Variants at the floor of the assay were thinned out.
B1: TPR 5TU (parent)
chain: GGAUCUUCUCGAUCUAACAAAAAAGACAAAUCUGCCACAAAGCUUGAGAGCAUCUUCGGAUGCAGAGGCGGCAGCCUUCGGUGGCGCGAUAGCGCCAACGUUCUCAACUAUGACACGCAAAACGCGUGCUCCGUUGAAUGGAGUUUAUCAUG

Variants of: B1
Assay: polymerase ribozyme fitness, log enrichment relative to wild type (log ratio); higher = more active; in vitro selection for triplet polymerase activity
In short: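 A heterodimeric triplet polymerase ribozyme had each of its subunits mutagenized by PCR into a library, which was transcribed. One round of in vitro selection, done in triplicate, annealed each library with a biotinylated primer, its partner subunit and triplets, then incubated it frozen at −7 °C before gel excision of extended constructs, streptavidin-bead capture and RT-PCR. Fitness is the logarithm of genotype enrichment relative to wild-type enrichment, based on Illumina sequencing of inputs and outputs and inverse-variance-weighted replicate averages. A base-2 logarithm is used, and genotypes were kept only with ≥10 input reads and ≥1 read per output.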

| Variant | polymerase ribozyme fitness (log ratio) |
| --- | --- |
| C10U A17G A23C A24C A26G U31G A39U U44A C54G C57G G86U A97U A142C | ≤ -4.2 |
| C85A G152A | -3.87 |
| A40U A120U G133C | -1.72 |
| G11A U61A C85A A122C A150C | ≤ -4.2 |
| U44G A49C C93U C125U A150U | ≤ -4.2 |
| A16C C79A A91U C116A C149A | ≤ -4.2 |
| C85U C103G | -3.48 |
| A22U A24G U31A U56G C79U U90G C95U A97C A120U C125G | ≤ -4.2 |
| A19U A30U U55G G59A G86U A150U | ≤ -4.2 |
| C10G G84A | -3.26 |
| U15G G59A G83U C118G | -1.13 |
| U56G G83A C87G C116G G140C | ≤ -4.2 |
| U56G A142U | -0.88 |
| A52C G71A C85A G94C G141U | ≤ -4.2 |
| A22C C27G A37C A73G U146A G152U | ≤ -4.2 |
| G68C C93U A113U | ≤ -4.2 |
| U15C A37U G46U G84U U148C | ≤ -4.2 |
| U4A A19C A89U C96U A138G U146G | ≤ -4.2 |
| A17U U55A G84C C95G U148A | -3.23 |
| U15G A73C G84U C96A C103G A110G A137C | ≤ -4.2 |
| G80A G88C A113U C116U U148A | ≤ -4.2 |
| A17G U45A G50A G62U C79G G86U C103A | ≤ -4.2 |
| A41U G58A A147U | 0.803 |
| C14G A24C A26U C36A A73G A107U A119U U144A | ≤ -4.2 |

| Variant | polymerase ribozyme fitness (log ratio) |
| --- | --- |
| C95U C103G | -1.69 |
| A41U C114A | -4.16 |
| A28U A39U | ≤ -4.2 |
| C10A C54G A73U A120U | ≤ -4.2 |
| A19U A26G A122G | ≤ -4.2 |
| A20C A39C A40G G84U G88U C93A C96A | ≤ -4.2 |
| U6A G83C A89U G136U A137G | -3.78 |
| C5G C93A | -2.55 |
| U56A G83C A122G G152U | -3.94 |
| A22G C85U G133C | -1.48 |
| A29C U45A C95G | ≤ -4.2 |
| G11C A17G C32A C72U A113U G117U A122U U148G | ≤ -4.2 |
| A29C G48C C79A A122G G124U U144A U145G G152U | ≤ -4.2 |
| G50C U134A | -3.17 |
| C149U A150G | -2.95 |
| C35A U134C | -3.61 |
| A41G G81C U82C | -0.145 |
| A21C U56G G59A C72U A122U | -0.846 |
| A52U G74A G80C C95U A147C | ≤ -4.2 |
| A40C C93U | 0.422 |
| C99A U146A | -1.15 |
| C18G A21C A52G G84U G133C U134C | -4.07 |
| A119U A121G U135C U146A A150G | -3.77 |
| U56A U61G | -1.7 |

| Variant | polymerase ribozyme fitness (log ratio) |
| --- | --- |
| A3U A12G C43U C54U G71U C79A A120C | ≤ -4.2 |
| A17C G34A C96G A121G A122C U134C | -1.47 |
| A52C G84U U144G | -2.05 |
| A21G G141A | 1.12 |
| U7G A17C A24U A52G A64G C72G C85U G88U G92U C93G A119U | ≤ -4.2 |
| C79U A98G | -3.44 |
| C54G G133C | -2.55 |
| G11A C85U G92C G143A | -4.01 |
| A47C C54A C76U C85G A106U G143C | ≤ -4.2 |
| C76U U101A | -1.35 |
| U15C C93U | -0.331 |
| C10U G42C U53A A66G A91G A110C | ≤ -4.2 |
| A22G U53C C54U U78C G117A | -1.92 |
| G48A G62A G68C U78G C87A A91U A98U | ≤ -4.2 |
| C36U U56A C76U G86A A115C | -3.51 |
| U55A C149U | -1.55 |
| A40C G59A G71U G94C U127C | ≤ -4.2 |
| C85U A150C | -2.26 |
| U53A C54U C85U G141U | -1.21 |
| U9A C75G C85G C95G | ≤ -4.2 |
| C38G C85G C105U A121U G124A | -2.25 |
| A37C U45A C79U A97U U144A | ≤ -4.2 |
| U31A | 0.37 |
| A23C A39G C63U U104C C108G U135C | ≤ -4.2 |

| Variant | polymerase ribozyme fitness (log ratio) |
| --- | --- |
| A52G A106C | -0.69 |
| G25A C72U G80U C93A C114U | ≤ -4.2 |
| A91U C93A A122U G143C | ≤ -4.2 |
| C10A C14U A26U A30G G84A U139G A142U | ≤ -4.2 |
| U9C A40C U56A C96G U101C U134C | ≤ -4.2 |
| A16U C43U C87U U104G A107G C118A | ≤ -4.2 |
| U56A G81U U101G | -0.889 |
| C35U G94U | -0.729 |
| G100C | -3.72 |
| A16C C85G | -4.13 |
| G83C A110G | -3.65 |
| C5G U13A | -1.14 |
| A12C C14A A30U A39C G58C G83C G124U | ≤ -4.2 |
| A20G A40C A49C G50A G65C G68A C87U G124U | ≤ -4.2 |
| C14G A52C G58A C96U C125G | -3.92 |
| G58C G143A | -0.724 |
| U56A C105U A121C G133U G140U | ≤ -4.2 |
| C27U G50C C87A C105G | ≤ -4.2 |
| U13C U31G C32G C76U C131G | ≤ -4.2 |
| A12U C32G G100A C129A U144G | ≤ -4.2 |
| A12C A24G A52C A60C | ≤ -4.2 |
| A28C U31G G50C A52C G74A G80U G86U A121U | ≤ -4.2 |
| G84U A89U G126U | -1.58 |
| G84A A89U G136U | -2.91 |

| Variant | polymerase ribozyme fitness (log ratio) |
| --- | --- |
| A21C G84U U90C C116A A137C A138G | ≤ -4.2 |
| G48A C96A | -1.51 |
| U33C | -1.48 |
| U56G A60C G81A G94U A106G | -3.84 |
| A20C A21U U55A G59C C85A G126U | -0.602 |
| A52U G92C | -2.01 |
| G59C C95G C103U G126A | -2.28 |
| C14G U15C C18U A39U A49C G80C A110C | ≤ -4.2 |
| A40C C99U | 0.519 |
| C85G G92C A121C C132U U146A | ≤ -4.2 |
| U44A C95U C96G A120C | ≤ -4.2 |
| U15A U55A G59A | 0.845 |
| A20U A29G A52G A89U C96A | ≤ -4.2 |
| G88A C95A C123A | ≤ -4.2 |
| A52C C93U U102G | ≤ -4.2 |
| C79G U134C U146C | -4.11 |
| G48U C85U | -0.485 |
| C14A A17C C93U C116G | -2.99 |
| C8U C57U G71C G86A U104A | ≤ -4.2 |
| U6G A37G C38G C95U C116U G136U U139A U146C | ≤ -4.2 |
| U102A | -0.854 |
| C63U C75A G84A C118G A120G | ≤ -4.2 |
| U6A G50C C57A G83U C87A G94A | ≤ -4.2 |
| C99U A107G | -4.16 |

| Variant | polymerase ribozyme fitness (log ratio) |
| --- | --- |
| G50U U77A C87A | ≤ -4.2 |
| C54G U55A G58U | 0.0801 |
| U7A A24C A47C U109C A120U | ≤ -4.2 |
| A3G C75A C93A A97U A98U U101G C118U | ≤ -4.2 |
| A29C U44A G59U C72U C131G | ≤ -4.2 |
| A20C A52C C79G | ≤ -4.2 |
| G48A C57G G83C C87G U102A G112C A119C | ≤ -4.2 |
| U13C U56A A60G C95U C105G U109G C132A U145G | ≤ -4.2 |
| C93A U148G | ≤ -4.2 |
| U56A C96A A138G | ≤ -4.2 |
| A12U U55A C57G C103A G128U A147C | -4.11 |
| C95U U139G U148A | -3.14 |
| U146C A150U | 0.851 |
| C54G C75G G86U G92C G124U C125A A137C U151C | ≤ -4.2 |
| A19C U53A | -1.57 |
| A12U C93U A97U C103U C105U G133U | ≤ -4.2 |
| A39G U55G G83C G88C G100C G140U G141A U145G | ≤ -4.2 |
| C32U G50U C95A C131U G143A U151C | ≤ -4.2 |
| C114U U151G | -4.08 |
| A17G C38U C57A C63A A115G U144A | -1.28 |
| G50U C87U | -1.51 |
| U61A C69U A98U | -2.9 |
| A19U C35G C57U U90C C96A C132U | ≤ -4.2 |
| C5A A21C G74A U82G G92U | ≤ -4.2 |

| Variant | polymerase ribozyme fitness (log ratio) |
| --- | --- |
| A20G A22C G25C C57A G92A C99U C108A | ≤ -4.2 |
| A26C A52C | -3.22 |
| G48U A73G | -1.15 |
| G74A A115C | -3.73 |
| A20U A30G A41G U45A U53G C96G | ≤ -4.2 |
| A40C U109C | -3.47 |
| C51G C85A G92U C95A | ≤ -4.2 |
| G94A C95G G133A U134G A137U | -4.11 |
| C54U A66U C85U | ≤ -4.2 |
| A49U G84U A97G C114G | ≤ -4.2 |
| U6G U13G C14U A24C C76A G81U C87A | ≤ -4.2 |
| U15C A23G U82A C93G G126A | -4.14 |
| C35U C96U U101C C118U | -0.95 |
| C8G A12G C35U C75A G86U U109G U127G A137G | ≤ -4.2 |
| U33A C43A C76U G92A G117U | -3.86 |
| A91U C96U C103A U109C | ≤ -4.2 |
| U33C G71C | ≤ -4.2 |
| G117A | 0.231 |
| A29U C114U A137G G141A U148C | ≤ -4.2 |
| C54A C96G A97C G143C | ≤ -4.2 |
| U33G A49U A91G G152A | ≤ -4.2 |
| A49C U145G | ≤ -4.2 |
| C32G A49C A52C G143U | ≤ -4.2 |
